Reference: patent US20240254195A1 (35PHARMA, published 2024)

T1: recombinant human activin A (human, UniProt P08476 311-426)
T1 sequence (looked up): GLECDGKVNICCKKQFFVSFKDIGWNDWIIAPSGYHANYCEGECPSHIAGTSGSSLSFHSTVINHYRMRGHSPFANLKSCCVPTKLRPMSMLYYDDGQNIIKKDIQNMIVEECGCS

T2: activin B (UniProt P09529 293-407)
T2 sequence (looked up): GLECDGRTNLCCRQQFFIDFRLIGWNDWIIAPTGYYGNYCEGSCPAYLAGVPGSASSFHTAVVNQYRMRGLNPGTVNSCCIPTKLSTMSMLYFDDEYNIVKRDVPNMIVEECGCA

T3: GDF-8 (UniProt O14793 267-375)
T3 sequence (looked up): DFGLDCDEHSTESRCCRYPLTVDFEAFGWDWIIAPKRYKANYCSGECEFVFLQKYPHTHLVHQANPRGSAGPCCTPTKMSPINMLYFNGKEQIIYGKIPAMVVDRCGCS

T4: GDF-11 (UniProt O95390 299-407)
T4 sequence (looked up): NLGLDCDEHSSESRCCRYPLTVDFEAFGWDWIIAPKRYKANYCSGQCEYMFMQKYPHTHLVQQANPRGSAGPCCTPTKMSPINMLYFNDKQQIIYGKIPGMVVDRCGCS

T5: BMP-9 (UniProt Q9UK05 320-429)
T5 sequence (looked up): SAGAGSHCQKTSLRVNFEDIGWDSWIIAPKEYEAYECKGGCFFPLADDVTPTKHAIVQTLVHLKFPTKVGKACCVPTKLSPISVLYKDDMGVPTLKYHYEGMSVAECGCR

T6: BMP-10 (UniProt O95393 317-424)
T6 sequence (looked up): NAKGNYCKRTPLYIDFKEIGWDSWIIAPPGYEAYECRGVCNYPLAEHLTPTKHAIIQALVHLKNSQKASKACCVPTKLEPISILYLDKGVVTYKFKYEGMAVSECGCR


What was measured:
Assay in all cases: cell-based or functional assay
[1] = biological target: T1, recombinant human activin A
activin B = biological target: T2, activin B
GDF-8 = biological target: T3, GDF-8
GDF-11 = biological target: T4, GDF-11
BMP-9 = biological target: T5, BMP-9
BMP-10 = biological target: T6, BMP-10

Row | Activin A IC50 [1] | Activin B IC50 (activin B) | GDF-8 IC50 (GDF-8) | GDF-11 IC50 (GDF-11) | BMP-9 IC50 (BMP-9) | BMP-10 IC50 (BMP-10) | Binder
1 | 0.53 nM | 2 nM | 0.33 nM | 0.39 nM | > 1000 nM | > 100 nM | P1375 (Fc fusion) ETRECIYYNANWELERTNQSGLERCEGEQDKRWHCYASWRNSSGTIELVKKGCWLDDFNCYDRQECVATEENPQVYFCCCEGNFCNERFTHLPEAGGPEVTYEPPPTGGGGSGGGGSGGGGSGGGGTHTCPPCPAPELLGGPSVFLFPPKPKDTLYITREPEVTCVVVDVSHEDPEVKFNWYVDGVEVHNAKTKPREEQYNSTYRVVSVLTVLHQDWLNGKEYKCKVSNKALPAPIEKTISKAKGQPREPQVYTLPPSRDELTKNQVSLTCLVKGFYPSDIAVEWESNGQPENNYKTTPPVLDSDGSFFLYSKLTVDKSRWQQGNVFSCSVMHEALHNHYTQKSLSLSPG
2 | 0.56 nM | 2 nM | 0.18 nM | 0.53 nM | > 1000 nM | > 100 nM | P1372 (Fc fusion) ETRECIYYNANWELERTNQSGLERCEGEQDKRWHCYASWRNSSGTIELVKKGCWLDDFNCYDRQECVATEENPQVYFCCCEGNFCNERFTHLPEAGGPEVTYEPPPTGGGGSGGGGSGGGGTHTCPPCPAPELLGGPSVFLFPPKPKDTLYITREPEVTCVVVDVSHEDPEVKFNWYVDGVEVHNAKTKPREEQYNSTYRVVSVLTVLHQDWLNGKEYKCKVSNKALPAPIEKTISKAKGQPREPQVYTLPPSRDELTKNQVSLTCLVKGFYPSDIAVEWESNGQPENNYKTTPPVLDSDGSFFLYSKLTVDKSRWQQGNVFSCSVMHEALHNHYTQKSLSLSPG
